# Reference: a protein production outcome set (Wang et al. 2014)
# Experiment: label from the status in PepcDB records
row,Sequence,protein production
1,MLKVFAMEMKDAKLYGGIGAILQLVGPFVPSIGFILALVGLVLVFLAVKTISEKSGDEGIFNNYLKAFIAQILGIIIFVGIIVATIGTAILKGGMGKLANPMEFMSLIGTILLGFIILWIFYTVAGYFKKKSYENSQYTGTDMFKTAGLLFFIGAILIILGIGVLIILIAEILEIVAFFSLPETSESAPVSA,failed
2,MLKVSVITACFNSEKTIEDTILSVLHQTYKNIEYIIIDGASTDSTLEIIQKHRDKIACVMSEKDEGIYDAMNKGIKRSSGDIIALLNSDDFYKDEFVVEKVVHEFERKNCDSVYADLVFVKPDCLEKVVRYYEIGEFNPKTLLYGVVPAHPTLFVKKAIYERYGLYKTDYKISADFEMIIRLFVVQKISFSYLKEVLVVMRTGGVSASGFKSLLLRNKENIRACKENGIQANVFSMLLKYPRKIMGLFKRGKGGLKRND,failed
3,MLKYSMHLNIILLEASLELVPKEIVNHPAVIKNAKRRNKKPEDTLLDISLHYHAMKYLENSHKRGRPDILHQALLVILTDPVIKGDIFIHTIQSKIIKVNPNMRPPKNYLRFIGLMEQLLKYGKIPINGDETLMEVTNLTLDNIVNRYDLILLSEKGEKINPEEICKLDEKWLLGIGAFPHGDFSDKILNLAKKIYSISGFPLETQQVLCRIFSACNSILGWPLEHHHHHH,failed
4,MLLAVEGGGLFSASASGYSKGLTLLFSGDKDVDRPMRVVPWNHYQVVDQEPEADPVLQLDSIKNRVSRGCAASFSCFGGASAGLETPSPLKVEPVQQQHREISSPESVVVVSEKGKDQISEADNGSSKEAFKLSLRSSLKRPSVAESRSLEDIKEYETLSVDGSDLTGDMARRKVQWPDACGSELTQVREFEPRYV,failed
5,MLLEDRILKKWLLPFILSVLIAVDSMAQCIPVYKDSSMSVERRVTDLLGRMTLREKIAQLSHLHGYQLYNGQEVDYQKLRDAAGDISYGCIEGFNLTGENVRKAFHAIQKYMVEETRLGIPVFTVTESLHGSVHDGSTIFPQSVAVGSTFNLDLAYQMTKAIATELRSQGVIQTLSPGLDVVRDLRWGRVEESFGEDPWLVGQMGIAQVKGYIDGGISPMLKPFGPGGAPLGGLNLASVESGERDIRNIHIKPYEMAVRNTEVKAVMTSYNSWNGIPNSASSYLLTNILRNEWGFKGYVYSDWGAVAMLKDFQHTAKDDSEAAIQALTAGVDLEASSNCYWALEQLIEQGRFDEKYVDLAVGRILRVKFELGLFENPYQGADMPGVAMRTKEAVELSRRVADESIVLLKNENTLLPLNLNKIKSLAVIGPNANQVQFGDYTWSRSNKDGVTPLEGLKKRVGNKIKINYAAGCDLITDNKSGFDEAVAAVKASDMAVVFVGSSSASLARDYSDATCGEGFDLSSLDLTGVQEELVEEIYAIGKPVIVVLVTGKPFSISWIKEHIPAIVVQWYGGEKAGDAIADMLLGNINPSAKLPFSFPQSVGHLPVFYNHLPTDKGFYRRPGRPNEPGRDYVFSSPAPLWSFGHGLSYTTFEYLNAHYSAELLHPSDTLIVSVSLKNTGSVAGKEVVQLYVRDVVSSVVTPVKQLKAFSKPFLQPGEMQTVVLKLPIQELALYDLSMKKVVEEGEYEIQIGTASDDIRLRRTIFVGRQPVTSNSLGHNDFCMDEIVKNPGRKIKVAGCVRDVQATPISGIEIKSNYSGRTVISKEGGRYSILTVENDVLTVSAKGFETVNIKVNKQKDIDIKLNYSHD,failed
6,MLLKRSLPKMRWKSWVKPWQQLDWPLFCLPVGVSIFGGLMILSTELKQPVTDWWWHWLIAGIGVFIALFLARCRYDNLLQWHWITYVLTNISLITVMAAGTSAKGAQRWLTIGGFNVQPSEFAKIGVIITLAALLHKHTATRIEDVFRALAITAIPWLLVFVQPDLATSLVFGAIVLGMLYWANANPGWLLLMISPIIAAILFTMSWPLSTPIILFKEIFITPFGVAWAIGMAILGWLTLPWRRFNMGTIGAFSLNLLGGELGIFAWNHVLKEYQKNRLTAFINPEQDPLGSGYHLIQSRIAIGAGEMWGWGLFKGPMTQLNFVPEQHTDFIFSAIGEEFGLFGCLIVLFVFCLICWRLLHVAQTAKDNFGSLLAIGVLSMIIFQLVVNVGMNVGLAPVAGIPLPWMSYGRSAMLTNFIALGIVESVANFRQRQKYYF,failed
7,MLLLWLVVLVIGAAYLTHRRLAPLQILGIVAAYVLLMGIFSSAPGWLLALIWVVLALKIALVALPQWRRKLFTAPVFRWFQRTLPPMSQTEREAIDAGTVWWDGELFSGRPDWRTLLAYPAPKLTEEEQAFIDGPTEALCAMVSDWQIGQDLDLPPEAWAHIKQHGFFALIIPKEYGGKGFSAYAHSQVAMKLATRSGDLASTVMVPNSLGPAELLLHYGTDEQRNRYLPRLARGEEIPCFALTGPLAGSDAGAMPDTGIICKGQWQGEEVIGLRLNWEKRYITLGPVATLLGLAFKAYDPDHLLGEQEELGISLALIPTDTPGVEIGKRHLPLGAAFMNGPNSGKDVFVPLDFLIGGQAMLGKGWMMLMNCLSVGRSISLPAVGTGAAKYTSLVTGQYANIREQFNVPLAAFEGIQESLARIGGNAWLMDSARLLTAKAVDLGEKPSVLSAILKYHLTERGRECIQHAMDVHGGKGIIMGPNNYLGRNWQGAPIFITVEGANILSRNLMIFGQGAIRCHPFVLKEMALAGREDHDQALKEFDDLLMKHILFAAGNAASTLVYGLGLGRFERVPGDALSQGYFRALNRQAAAFAMMADLSMMLLGGALKRRERLSARLGDVLSYLYLASAALKRYHDQGSPEYLQPLLRWAMEESLGQTERALDRLLDNFPNRFVGCALRVLVFPFGRRHKGPGDELDAEVAELIGRRKGDPALEELLAGCYRPQAEHDPVADLQRASDLLEDTAQLSKALYQAVKEGKVQPAPGQSGIDAAVKAGVLQPDDGQRLHEAEQARRKVIDVDAFDKAQLLAVPGKVR,failed
8,MLLNKYFLANRNINFIVMALLFSSSYISASSFISGPSAVYKYGLSFILLATIQIPTTLIVFIIVGQRLNRESKKINAINIIDYIRHRYESDFLALMSGFVLIFFSMFLISAQLIGGAKLIEVFWGIDYVVGLTFFAFLVFIYVFFGGFKAVAYTDLIQGFLMLVSSVILFSKMLDLGGGINNLFKTATSSLDKSLLLPSNADLKPQYIISFWILIGIGILGQPQIINNFIAFKDENAIKFSLPISTFIISFLIVLMHLIGFFAIILFPDLSPNDKVVLNVALKVLNPFSCFMFFIGLLSAIMSTVDSNLLLITSVLIKSIFIYKEDLKEDVKIGRIIMISNIFFILIILIFSLFPPNFLFFINIFAFGALEVSFFPIIVFGLYLNFVSKIAAFASMFLGLIFYLSILFFGLNIWFFHPVFPSFFVSIFTFLVVNFFCKKNSKVC,failed
9,MLLRKGTVYVLVIRADLVNAMVAHARRDHPDEACGVLAGPEGSDRPERHIPMTNAERSPTFYRLDSGEQLKVWRAMEDADEVPVVIYHSHTATEAYPSRTDVKLATEPDAHYVLVSTRDPHRHELRSYRIVDGAVTEEPVNVVEQYLEHHHHHH,failed
10,MLLSMLRFEWRYYLRQPSFYVVSFLLFLMSFLSVASNNIQIGSGGEVMKNSPFSISQTLLIMGLISMFAVVNFVGSTAIRNHQHLMEELVYSKPLSPFAYQFGRFLGSFMVVLAVFAFVPIGLMLGSFMPWVDASRFGPFALSHYVIPYLQLSVPSLLLISCLFYAMASRFRSLMALYLTAVAMLVLYTLTGEMASQPQYRTIAALLDPFALRTFAEVTRYWTISEKNHQLLELSGLVLQNRALWLVIAGVLLAMSGIFSQPTLTKKRDKKSSKVEKIPDLVPLTALAMATLPNGRLQFWTRVKFEVRQVLLTAPFVVLGALTVFNLVGPMFDDFGWYGTSNWPLTQDMVDNIAGATGLLMVIVLIYYSAEIVWRERSSGMGDIVDSVPVSNLSFWASKLVAVLIVMTLLYMLAMGTTIVFQLIKGQSNLEISQYLIRLGFYYLLPLLMTSVLAFFLQVLSPNKYAGMGLFVAYYLTTFVMANWGFGHSLYNFGQSPSVSYSDMNGYGWGLLSHSLYMIYWGAFSVMLFVLGYGLYHRGPQQSLKTRLGLLGYQLGHNGKVIIAAALVIFVGSGSYLFYQTKVVNHYLTQEETTDLQADYEKTFKQYQGMPILVTTRVNANVDIFPEQRKIAAKVMFEWQNKSDKPIEKMLVQFPEHTQAETVKINIPNTHLGEFDRRYRNAWLTFSTPVQPGQLVVGNIELVRESTGVAESGFDLSVVENGTFINNFELLPLFGYQDGYELMDRHERQKRGLAEKNRANKLEDSRFYQQNFFGVDGDFIQFEATISTSMDQIALAPGYLQKQWQQDDRQYFHYLMDSPMVNFYAIISGRYQVEKIEHHGVAVEVYYHADHSWNVTRMVESVKDSIDYYTAAFGPYQHKQMRIMEFPGYRSFAQSFANTVPYSERIGFITDLRNEDNIDPVYYVTAHEVAHQWWGHQVGAADVQGSAVISESLSQYSALMVLEHKYGDKMIRKFLKYELDRYLRGRSAESIKEQPLLRSENQQYIHYQKGSVVMMAIKDVLGEAKLNANLKAFLTRYQYRNDPFPTTLDLVSYLKQGTDEVQSRFIDESFNDITLYDLRLTNAVAKTLPDGKTQLELTIYASRKVATGKGEEAEQPLDMSIDIGAFSADPDKLKDEKQILLLEKHHLVSGENKLTITLAEKPSYVGVDPFVKLIDRDARDNIFKL,failed
11,MLLVGVAIAFLHKYIVLVVLTSILITACQGDIIDNPNLESNVPQSTDCRVVEHAVGKTKICGKPKKIAVLEPKMLSLMLALDVQPAAYADAYLVNAPQFDNPSQQIPYLGKYVTSQPINLGDRSSPSLEALTLLKPDLILGLNYQDNQLFSAIAPTVFIDNEQNWQESIKIVAKALDSQKNIPSIITSQQQQLAKVRAQLESLVSTHPRVLNIVCSQLMDYIEVTYNGNTIEILEKIGFQPVFLPDIERKPGLRPQITLETLAQLDADIVIVNTWVDNWNGKSTYTVPLKELKQKWAKNPLLHNSQAWKEGRVYFVDYTLWGNVIGAPIANALILEQLPSLLLSNTLKP,failed
12,MLMNNRVNNMMRTYKFRIYISKSIQETIEEHLNICRYLYNYLLEQKTKNPKLNKGDTQKLITEHKKENPELKKVHSKALQMVNNKLWGNLKALGKLKQNGHKVGKLRFKSSKNHYKTIEYNQSGFKIKDNKLYLSKIGEISIKLHRKIKGEIKGVIIKKELTNKWFAFFQVEEEPKPLPKTNKVVGIDLGIDGYTIDSDGNKFENPKFIDETLDKIKKVQKNLSRKVRGSNNYKKTKLKLIKVYDKLNNQKNDFLHKLSRYYINNYDKIVLEDLNIKSMVENKKGQKTLNRHILDGSWKKFINLLLYKAEGAGREVILINPAYTSKKCFNCGCVVSSLRLSDRIFFCPNCGWKIDRDYNASLNILKSGLGESVVPAEGRPLLRVIPYIKVISGQVSPMNQEALPEGRGLRKPKGFRSTPSVREG,failed
13,MLNIQNYSASPHPGIVAERPQTPSASEHAEIAVVPSTTEHRGTDIISLSQAATKIQQAQQTLQSTPPISEENNDERTLARQQLTSSLNALAKSGVSLSAEQNENLRSTFSAPTSALFSASPMAQPRTTISDAEIWDMVSQNISAIGDSYLGVYENVVAVYTDFYQAFSDILSKMGGWLSPGKDGNTIKLNVDSLKSEISSLINKYTQINKNTILFPSQTGSGMTTATKAEAEQWIKELNLPDSCLKASGSGYVVLVDTGPLSKMVSDLNGIGSGSALELDNAKYQAWQSGFKAQEENLKTTLQTLTQKYSNANSLYDNLVKVLSSTISSSLETAKSFLQG,failed
14,MLNMSFAPTSLTVSQMSGTRTIRPLTAATLCGIAFIQDRLIAIDSIKGHLLEIDPKTDNSKILNPHQAKEFTDVTGLAVWEDNLWVTRGNSVYVSKLSSLGLEHFVTLPYSADGVAVWESTVYVSCHRLGYILIFDRDTRKEITRFYAPGVGVENLVVNGNTLWVCDRTEQTVYSMDRATGEVIFSVLTPFESPTGIAVHLDAETGKENLYVAYASEEPYIRDNPNADPNHELTYRDRTFIHPLYYHHQPDKHYALSNGYLIEMSYAEEISPLEEVYIPEVEWRIALPSETERQKIRHIEPIGIPFTEEVIDGQRVALFKFDALVPGERHIFGWKALLEVRGIKYRITPKEVENIPELSPEFQERYLVDDDDLAMDTSIVRRAAEEAVGSETNLLRKMYSIRNYVYDELSYGIKPYIDTPDIVLERGIGSCGEYVGVLLALCRLNGIPCRTVGRYKCPPQAEQQGVPLQPDFNHVWLEFYIPGFGWLPMESNPDDLGRGSQYPTRFFMGLCWYHIEIGKGVSFETISSQGKRLTKDDIPIGDLAINHIRFTIVKELPDF,failed
